Eight molecules from patent US20120316071A1 (published 2012) can be followed below.

Assay [1] concerns the target T1, Recombinant Human DLL4 (R&D Systems Cat#1506-D4/CF) (human, UniProt Q9NR61 27-524).
T1 construct: bought recombinant protein; also called rHuman DLL4; delta-like protein 4
Kind of assay: Multispot ECL.

In assay [2] the target is T2, Recombinant Human DLL4 (delta-like protein 4) (human, UniProt Q9NR61 27-524).
T2 construct: Bought recombinant protein; also called rHuman DLL4
Kind of assay: ECL (MSD) binding assay, Fab on immobilised recombinant human DLL4.

For assay [3], the target named is T3, rHuman P-Cadherin/Fc Chimera, CF (R&D Systems Cat#861-PC) (human, UniProt P22223 108-654).
T3 construct: Bought reagent; Fc part of the bought chimera not given
The experiment in a line: ECL (MSD) multispot binding assay, antigen spotted on plate, 20 nM Fab.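 Further: purified Fab incubated 1 h at 20 °C on antigen-spotted plate, bound Fab revealed with TAG detection antibody, ECL read, antigen signal divided by same-well blank, ratio ≥4 counted as hit.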

The target in assay [4] is T4, Recombinant Human DLL4 (R&D Systems Cat#1506-D4/CF) (human, UniProt Q9NR61 27-524).
T4 construct: Bought recombinant protein; also called delta-like protein 4; rHuman DLL4
Described as above.

In assay [5] the target is T5, rHuman HGF R/c-MET/Fc Chimera, CF (R&D Systems Cat#358-MT/CF) (human, UniProt P08581 25-932).
T5 construct: Bought reagent; also called HGF R/Fc; hepatocyte growth factor receptor; Fc part of the bought chimera not given
The assay is described as above.

The target in assay [6] is T6, rHuman EGF R/Fc Chimera, CF (R&D Systems Cat#344-ER) (human, UniProt P00533 25-645).
T6 construct: Bought reagent; also called epidermal growth factor receptor; Fc part of the bought chimera not given
Described as above.

Assay [7] addresses T7, rHuman ErbB2/Fc Chimera, CF (R&D Systems Cat#1129-ER) (human, UniProt P04626 23-652).
T7 construct: Bought reagent; also called human epidermal growth factor 2 receptor; Fc part of the bought chimera not given
Described as above.

Assay [8] deals with T8, rHuman IGF-1 sR, CF (R&D Systems Cat#391-GR) (human, UniProt P08069 31-932).
T8 construct: Bought soluble receptor; also called insulin-like growth factor-1 soluble receptor
The description is as above.

The target of assay [9] is T9, rHuman Erythropoietin R/Fc Chimera, CF (R&D Systems Cat#963-ER) (human, UniProt P19235 25-250).
T9 construct: Bought reagent; also called EPO R; EPO R/Fc; Fc part of the bought chimera not given
T9 sequence (looked up): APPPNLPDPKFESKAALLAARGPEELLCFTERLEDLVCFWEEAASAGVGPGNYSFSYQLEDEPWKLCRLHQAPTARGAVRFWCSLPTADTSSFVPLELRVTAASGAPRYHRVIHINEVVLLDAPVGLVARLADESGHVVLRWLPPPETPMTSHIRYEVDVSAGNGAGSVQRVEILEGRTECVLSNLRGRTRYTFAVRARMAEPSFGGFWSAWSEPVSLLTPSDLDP
The assay is described as above.

The target of assay [10] is T10, rHuman Notch-1/Fc Chimera, CF (R&D Systems Cat#3647-TK) (human, UniProt P46531 19-526).
T10 construct: Bought reagent; Fc part of the bought chimera not given
Described as above.

The target of assay [11] is T11, rHuman CD44/Fc Chimera, CF (R&D Systems Cat#3660-CD) (human, UniProt P16070 21-220).
T11 construct: Bought reagent; Fc part of the bought chimera not given
Described as above.

Assay [12] concerns the target T1, Recombinant Human DLL4 (R&D Systems …). The experiment in a line: 96-well plate ECL.

Positions count from the first letter of the chain named. Names may count otherwise.

T5 sequence (P08581 25-932, change not shown): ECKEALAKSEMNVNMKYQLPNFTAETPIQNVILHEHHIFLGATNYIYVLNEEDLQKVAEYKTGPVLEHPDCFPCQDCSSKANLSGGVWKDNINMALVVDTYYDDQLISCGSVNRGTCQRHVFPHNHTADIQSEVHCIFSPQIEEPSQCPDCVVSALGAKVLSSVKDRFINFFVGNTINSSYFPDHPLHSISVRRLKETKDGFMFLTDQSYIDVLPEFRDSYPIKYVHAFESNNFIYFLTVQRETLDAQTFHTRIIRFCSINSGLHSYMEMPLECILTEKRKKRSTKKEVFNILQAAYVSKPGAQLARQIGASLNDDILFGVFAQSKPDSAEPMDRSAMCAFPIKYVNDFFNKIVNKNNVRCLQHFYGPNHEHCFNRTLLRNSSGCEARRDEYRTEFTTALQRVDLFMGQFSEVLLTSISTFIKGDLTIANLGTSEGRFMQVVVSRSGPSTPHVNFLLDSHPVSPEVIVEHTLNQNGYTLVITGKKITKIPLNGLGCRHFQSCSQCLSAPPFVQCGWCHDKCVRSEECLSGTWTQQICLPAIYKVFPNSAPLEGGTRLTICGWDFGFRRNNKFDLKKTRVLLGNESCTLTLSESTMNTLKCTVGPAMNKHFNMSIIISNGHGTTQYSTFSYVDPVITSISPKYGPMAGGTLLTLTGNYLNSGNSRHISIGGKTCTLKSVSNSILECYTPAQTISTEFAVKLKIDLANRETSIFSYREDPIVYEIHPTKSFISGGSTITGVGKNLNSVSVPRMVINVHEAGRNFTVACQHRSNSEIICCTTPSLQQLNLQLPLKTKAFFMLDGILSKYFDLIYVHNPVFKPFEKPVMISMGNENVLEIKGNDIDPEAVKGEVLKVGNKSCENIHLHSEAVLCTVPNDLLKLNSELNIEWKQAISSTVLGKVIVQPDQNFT

B1: Fab VH1-46_IGHD6-6*01_IGHJ1*01 & A27_IGKJ1*01 (Fab, V domains shown)
VH: QVQLVQSGAEVKKPGASVKVSCKASGYTFTSYYMHWVRQAPGQGLEWMGIINPSGGSTSYAQKFQGRVTMTRDTSTSTVYMELSSLRSEDTAVYYCAREEYSSSSAEYFQHWGQGTLVTVSS
VL: not shown
notes: Fab; also called non-Hit
On to B1, for which, in [1], the binding result is reported as “no binding”.

B2: Fab VH1-46_IGHD6-6*01_IGHJ1*01 & A27_IGKJ1*01 (Fab, V domains shown)
VH: B1 VH
VL: not shown
notes: Germline Fab from the combinatorial library, with CH1 (plus His6 and Flag tags) and a kappa constant region from the expression plasmids
As to B2, the binding result in assay [2] is listed as “no binding”.

B3: Fab VH1-46_IGHD6-6*01_IGHJ1*01 & L25_IGKJ1*01 (Fab, V domains shown)
VH: B1 VH
VL: EIVMTQSPATLSLSPGERATLSCRASQSVSSSYLSWYQQKPGQAPRLLIYGASTRATGIPARFSGSGSGTDFTLTISSLQPEDFAVYYCQQDYNLPPWTFGQGTKVEIKR
notes: as for B2
On to B3, for which, in assay [2], the binding result was “no binding”.

B4: Fab VH1-46_IGHD6-6*01_IGHJ1*01 & L25_IGKJ1*01 (Fab, V domains shown)
VH: B1 VH
VL: B3 VL
notes: Fab; also called non-Hit
Regarding B4, the binding result in assay [1] is reported as “no binding”.

B5: Fab VH3-23_IGHD2-21*01>3_IGHJ6*01 H100E/S108P/Y113G Y114P & V2-13_IGLJ2*01 (Fab, V domains shown)
VH: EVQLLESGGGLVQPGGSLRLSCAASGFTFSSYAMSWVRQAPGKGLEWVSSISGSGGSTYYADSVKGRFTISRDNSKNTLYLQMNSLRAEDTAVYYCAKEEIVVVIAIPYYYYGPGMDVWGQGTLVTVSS
VL: SSELTQDPAVSVALGQTVRITCQGDSLRSYYASWYQQKPGQAPVLVIYGKNNRPSGIPDRFSGSSSGNTASLTITGAQAEDEADYYCNSRDSSGNHLVVFGGGTKLTVL
notes: Tested as Fab made in E. coli (VH-CH1 with His and Flag tags; lambda CL); also called EPG Y114P
Regarding B5, the “ECL multispot value” in [3] turned out to be 1.3; in [4], 1.1; in assay [5] it was 2.7; in assay [6], 1.2; in assay [7] it was 1.4; in assay [8] it was 0.9. The “ECL multispot value” in [9] was determined as 2.3; in assay [10], 1.4; in [11], 1.1.

B6: Fab VH3-23_IGHD2-21*01>3_IGHJ6*01 H100E/S108P/Y113G Y114T & V2-13_IGLJ2*01 (Fab, V domains shown)
VH: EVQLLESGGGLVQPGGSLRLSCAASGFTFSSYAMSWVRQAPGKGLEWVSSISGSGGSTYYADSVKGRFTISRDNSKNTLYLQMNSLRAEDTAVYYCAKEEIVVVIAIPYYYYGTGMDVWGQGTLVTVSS
VL: B5 VL
notes: Tested as Fab made in E. coli (VH-CH1 with His and Flag tags; lambda CL); also called EPG Y114T
For B6, the “ECL multispot value” in assay [3] was 1.7; in [4], 1.6; in assay [5] it was 1.8; in assay [6], 1.3; in assay [7], 1.4; in assay [8], 1.1. Further, the “ECL multispot value” in assay [9] was determined as 2; in assay [10], 1.8; in assay [11] it was 1.1.

B7: Fab VH5-51_IGHD5-18*01>3_IGHJ4*01 G100K & V3-4_IGLJ1*01 (Fab, V domains shown)
VH: EVQLVQSGAEVKKPGESLKISCKGSGYSFTSYWIGWVRQMPGKGLEWMGIIYPGDSDTRYSPSFQGQVTISADKSISTAYLQWSSLKASDTAMYYCARRKYSYGYDYFDYWGQGTLVTVSS
VL: QTVVTQEPSFSVSPGGTVTLTCGLSSGSVSTSYYPSWYQQTPGQAPRTLIYSTNTRSSGVPDRFSGSILGNKAALTITGAQADDESDYYCVLYMGSGISYVFGTGTKVTVL
notes: Fab
As for B7, the “fold ECL signal against the parent Fab” value in [12] was approximately 2 fold.

B8: Fab VH5-51_IGHD5-18*01>3_IGHJ4*01 G104T & V3-4_IGLJ1*01 (Fab, V domains shown)
VH: B7 VH with K100G, G104T
VL: B7 VL
notes: Fab
On to B8, for which the “fold ECL signal against the parent Fab” value in assay [12] was approximately 2 fold.
